Our source for the macrophage migration towards ZAMS medium (chemotaxis assay, FIG. 9) values is patent US20070190056A1.

In the experiment the target is recombinant myostatin. Description: cell-based or functional assay.

Regarding “myostatin antagonist 350 (amino acids 267-350 of bovine myostatin) (from UniProt O18836 267-350) (peptide)”, the macrophage migration towards ZAMS medium (chemotaxis assay, FIG. 9) amounted to 20 fold.
